# Measurements taken from paper PMC6762210, “The monothiol glutaredoxin GrxD is essential for sensing iron starvation in Aspergillus fumigatus” (PLoS Genetics, 2019).
# T1: GrxD (recombinant full-length GrxD after removal of the His-tag by TEV protease) (A. fumigatus, UniProt Q4X024 1-271)
# T1 construct: GrxD of Aspergillus fumigatus (Afu2g14960), full length, from a synthetic gene; Residues of the TEV site may be left at the C-terminus after cleavage (surmise); source: E. coli BL21(DE3), co-expressed with HapX^161-491, purified (Ni-Sepharose, TEV protease, Superdex 200 SEC); not shown: His6, C-terminal, cleaved
# T1 sequence (looked up): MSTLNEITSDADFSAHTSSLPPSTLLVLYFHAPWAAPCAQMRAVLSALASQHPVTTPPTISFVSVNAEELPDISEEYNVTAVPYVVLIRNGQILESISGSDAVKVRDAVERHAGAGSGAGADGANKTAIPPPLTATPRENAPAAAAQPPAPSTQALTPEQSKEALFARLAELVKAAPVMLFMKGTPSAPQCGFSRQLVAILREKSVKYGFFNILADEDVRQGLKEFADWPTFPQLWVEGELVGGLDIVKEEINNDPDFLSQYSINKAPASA
# B1: HapX^161-491 (A. fumigatus HapX C-terminus with all four cysteine-rich regions) (domain or fragment, UniProt Q4WER3 161-491, looked up)
# chain: KGLAPLTTSTPQARSSDRPDNGDASNNDSGEGREEVPLGCNDCSTSHCQCIEDAFTMPGVVAQEQSRRLDTTKPGLSEPQIKPDPEEMEIDFTSRFAATQQQDQSPTSVSSPAVDPCGFCSDGTPCICAEMAAQEEQRPRRNSFENNRLAPIQNLSQFTPPPSDGDVRSDVTLPPISQATNPCANGPGTCAQCLADPRRTLFCKTLAASRSPSAAPSGCCGGKGADGGCCQSRNTNVSRGRSGSNNNTSSGSSAAPSLTLSCADAYTTLSRHPNFSRATDELSTWLPKLHTLPKPRDFPLTDRGVPRAALEVEAASVMGVLRYFDRRFADK
# notes: HapX of Aspergillus fumigatus (Afu5g03920), amino acids 161-491 (cysteine-rich C-terminus), from a synthetic gene; also called AfuHapX^161-491; pnCS-HapX161-491; source: E. coli BL21(DE3), untagged, bicistronically co-expressed with GrxD-His6; in crude cell extract, then co-purified (Ni-Sepharose, SEC)
# What was measured:
# [1] = molecular target: T1, GrxD (recombinant full-length GrxD …); assay: SEC; Ni-chelate eluate digested with TEV protease and loaded on Superdex 200 prep grade 26/60 in 25 mM HEPES pH 7.5, 150 mM NaCl, 2 mM glutathione; apparent masses from protein calibration standards; fractions checked by SDS-PAGE; details: both partners purified
# [2] = molecular target: B1; assay: as above; details: both partners purified
Binder,stoichiometry N [1],binding result [2]
B1,~1 HapX^161-491 per GrxD (2:2),
"GrxD^C191A (recombinant GrxD with cysteine 191 mutated to alanine) (natural protein, GrxD of Aspergillus fumigatus (Afu2g14960), full length, C191 of the CGFS motif mutated to A; source: E. coli BL21(DE3), co-produced with HapX^161-491, purified (Ni-chelate, TEV protease, SEC); not shown: His6, C-terminal, cleaved) MSTLNEITSDADFSAHTSSLPPSTLLVLYFHAPWAAPCAQMRAVLSALASQHPVTTPPTISFVSVNAEELPDISEEYNVTAVPYVVLIRNGQILESISGSDAVKVRDAVERHAGAGSGAGADGANKTAIPPPLTATPRENAPAAAAQPPAPSTQALTPEQSKEALFARLAELVKAAPVMLFMKGTPSAPQAGFSRQLVAILREKSVKYGFFNILADEDVRQGLKEFADWPTFPQLWVEGELVGGLDIVKEEINNDPDFLSQYSINKAPASA",,binds
